The values below are quoted from earlier work in PMC3050111.

Data set [1] has as its target integrin αVβ3 (Homo sapiens) (UniProt P06756).
Data set [2] shares this target. The source holds these as a separate data set.
Data set [3] has the same target. The source holds these as a separate data set.

Where two headings read alike, the source gives them in different places.

As usually defined, the Kd is a measure of binding affinity in units of concentration. As to fibrinogen (from UniProt P02671), the equilibrium dissociation constant (Kd) in data set [1] was 27 nM. With vitronectin (from UniProt P04004), in data set [2], the dissociation constant (Kd) was 64 nM. For Tat (from UniProt P04326), the Kd in data set [3] is 32 nM.
